For four molecules, response (binding/input), stoichiometry N and other: ratio of dimer to monomer results are on record in publication PMC11891140.

The target of assay [1] is EGL-8 used as bait in GST pull-downs of UNC-16 domains (Fig. 5D, 7J) (UniProt G5EBH0). As to the kind of experiment: GST pull-down. The following applies: GST::EGL-8 bait (x label in J' printed as GST::RAB-8); in vitro translated HA-tagged prey; three independent replicates; parent: est. 3.2; read off a plot.
In assay [2] the target is RAB-10 used in GST pull-downs, loaded with GTPγS or GDP (UniProt Q94148). Nature of the assay: GST pull-down. The following applies: GST::RAB-10 loaded with GTPγS; in vitro translated HA-tagged prey; three independent replicates; parent: est. 6.1; read off a plot.
Assay [3] has as its target purified UNC-16-LZII domain fragment (260–849 aa) (C. elegans). Nature of the assay: native gel or EMSA; native-PAGE of purified UNC-16-LZII domain and its L360P variant (260–849 aa); dimer formation; three independent experiments.
The target of assay [4] is T1, purified UNC-16-LZII domain fragment (260–849 aa), L360P variant.
T1 chain: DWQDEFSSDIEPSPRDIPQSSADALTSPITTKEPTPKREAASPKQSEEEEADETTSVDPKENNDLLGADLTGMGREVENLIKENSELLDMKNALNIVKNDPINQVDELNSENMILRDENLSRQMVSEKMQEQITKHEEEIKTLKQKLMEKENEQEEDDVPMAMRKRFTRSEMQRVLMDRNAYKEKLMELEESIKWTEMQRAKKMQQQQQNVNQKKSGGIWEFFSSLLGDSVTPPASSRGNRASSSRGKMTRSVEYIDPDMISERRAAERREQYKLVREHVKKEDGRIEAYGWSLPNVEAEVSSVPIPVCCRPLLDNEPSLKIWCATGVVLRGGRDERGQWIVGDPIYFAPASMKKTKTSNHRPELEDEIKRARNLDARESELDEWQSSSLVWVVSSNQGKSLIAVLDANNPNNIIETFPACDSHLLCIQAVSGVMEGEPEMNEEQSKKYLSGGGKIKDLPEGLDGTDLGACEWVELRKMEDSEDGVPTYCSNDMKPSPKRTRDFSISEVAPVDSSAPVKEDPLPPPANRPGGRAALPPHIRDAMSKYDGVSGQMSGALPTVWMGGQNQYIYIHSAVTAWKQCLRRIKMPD
As to the kind of experiment: Native-PAGE. The settings on record: chain shown with the change; three independent experiments; P = 0.0034; parent: est. 0.86; read off a plot.

UniProt G5EBH0, sequence (G5EBH0 whole entry, the tested form may be a part): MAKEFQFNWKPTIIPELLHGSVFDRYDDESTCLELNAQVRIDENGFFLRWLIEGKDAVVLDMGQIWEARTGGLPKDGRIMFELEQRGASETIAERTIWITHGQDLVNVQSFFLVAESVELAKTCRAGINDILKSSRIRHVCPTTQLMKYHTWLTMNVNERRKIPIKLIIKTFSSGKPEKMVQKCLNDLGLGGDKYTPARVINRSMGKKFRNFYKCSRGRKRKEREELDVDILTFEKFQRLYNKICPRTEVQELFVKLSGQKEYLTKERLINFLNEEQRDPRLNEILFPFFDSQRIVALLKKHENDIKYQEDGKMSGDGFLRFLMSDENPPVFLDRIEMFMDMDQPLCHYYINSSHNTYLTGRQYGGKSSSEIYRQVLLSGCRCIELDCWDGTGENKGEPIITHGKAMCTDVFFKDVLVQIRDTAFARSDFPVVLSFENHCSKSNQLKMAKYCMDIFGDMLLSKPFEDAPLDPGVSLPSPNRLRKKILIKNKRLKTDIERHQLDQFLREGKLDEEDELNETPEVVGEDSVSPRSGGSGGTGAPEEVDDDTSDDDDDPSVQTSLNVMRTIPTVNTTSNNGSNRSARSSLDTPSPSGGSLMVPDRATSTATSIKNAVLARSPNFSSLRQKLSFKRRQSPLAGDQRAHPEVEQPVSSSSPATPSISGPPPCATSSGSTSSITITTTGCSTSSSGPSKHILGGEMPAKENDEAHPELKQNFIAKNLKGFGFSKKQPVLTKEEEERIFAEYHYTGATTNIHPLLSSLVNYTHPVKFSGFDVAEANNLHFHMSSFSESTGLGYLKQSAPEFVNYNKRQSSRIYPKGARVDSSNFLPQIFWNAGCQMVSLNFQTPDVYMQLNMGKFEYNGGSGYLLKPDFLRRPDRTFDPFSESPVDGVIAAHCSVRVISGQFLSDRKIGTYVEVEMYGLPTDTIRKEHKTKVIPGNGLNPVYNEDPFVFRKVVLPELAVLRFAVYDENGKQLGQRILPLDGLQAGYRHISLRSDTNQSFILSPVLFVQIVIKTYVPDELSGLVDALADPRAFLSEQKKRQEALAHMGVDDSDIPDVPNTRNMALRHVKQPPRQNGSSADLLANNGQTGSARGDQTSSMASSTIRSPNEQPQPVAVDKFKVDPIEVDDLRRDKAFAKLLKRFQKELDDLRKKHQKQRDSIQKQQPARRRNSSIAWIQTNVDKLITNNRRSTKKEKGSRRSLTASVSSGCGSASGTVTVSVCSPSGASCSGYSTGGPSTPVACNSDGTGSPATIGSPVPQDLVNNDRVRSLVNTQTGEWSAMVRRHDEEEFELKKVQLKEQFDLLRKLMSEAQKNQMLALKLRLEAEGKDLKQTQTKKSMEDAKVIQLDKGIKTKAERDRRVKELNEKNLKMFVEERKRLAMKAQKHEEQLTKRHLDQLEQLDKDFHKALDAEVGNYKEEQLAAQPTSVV
UniProt Q94148, sequence (Q94148 whole entry, the tested form may be a part): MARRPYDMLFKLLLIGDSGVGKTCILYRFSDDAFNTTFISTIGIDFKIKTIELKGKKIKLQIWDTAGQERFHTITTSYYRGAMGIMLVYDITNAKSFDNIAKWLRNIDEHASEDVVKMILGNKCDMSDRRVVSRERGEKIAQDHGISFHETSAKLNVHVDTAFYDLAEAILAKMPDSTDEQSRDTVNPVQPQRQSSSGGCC

Take “HA-tagged UNC-16 fragment containing the LZII domain (in vitro translated) L353A; N354A; I355A; V356A; K357A; N358A; D359A; L360A; I361A; N362A; Q363A; V364A; D365A; E366A; L367A”: the response (binding/input) in assay [1] and in assay [2] was 0.1 each time.

As a reminder, the stoichiometry N is the number of molecules, sites or subunits per partner or assembly. Regarding “purified UNC-16-LZII domain fragment (260–849 aa) (domain or fragment)”, the stoichiometry N in assay [3] is 2.

“HA-tagged UNC-16 fragment containing the LZII domain (in vitro translated) L360P”: the response (binding/input) in assay [1] amounted to 0.65.

B1: purified UNC-16-LZII domain fragment (260–849 aa) L360P (protein)
chain: DWQDEFSSDIEPSPRDIPQSSADALTSPITTKEPTPKREAASPKQSEEEEADETTSVDPKENNDLLGADLTGMGREVENLIKENSELLDMKNALNIVKNDPINQVDELNSENMILRDENLSRQMVSEKMQEQITKHEEEIKTLKQKLMEKENEQEEDDVPMAMRKRFTRSEMQRVLMDRNAYKEKLMELEESIKWTEMQRAKKMQQQQQNVNQKKSGGIWEFFSSLLGDSVTPPASSRGNRASSSRGKMTRSVEYIDPDMISERRAAERREQYKLVREHVKKEDGRIEAYGWSLPNVEAEVSSVPIPVCCRPLLDNEPSLKIWCATGVVLRGGRDERGQWIVGDPIYFAPASMKKTKTSNHRPELEDEIKRARNLDARESELDEWQSSSLVWVVSSNQGKSLIAVLDANNPNNIIETFPACDSHLLCIQAVSGVMEGEPEMNEEQSKKYLSGGGKIKDLPEGLDGTDLGACEWVELRKMEDSEDGVPTYCSNDMKPSPKRTRDFSISEVAPVDSSAPVKEDPLPPPANRPGGRAALPPHIRDAMSKYDGVSGQMSGALPTVWMGGQNQYIYIHSAVTAWKQCLRRIKMPD
In the case of B1, the other: ratio of dimer to monomer in assay [4] came out at 0.58.
